Measurements: IntAct's records for PubMed 26068854

B1: Kinetochore protein NDC80 homolog (Homo sapiens), O14777 (parent)
chain: MKRSSVSSGGAGRLSMQELRSQDVNKQGLYTPQTKEKPTFGKLSINKPTSERKVSLFGKRTSGHGSRNSQLGIFSSSEKIKDPRPLNDKAFIQQCIRQLCEFLTENGYAHNVSMKSLQAPSVKDFLKIFTFLYGFLCPSYELPDTKFEEEVPRIFKDLGYPFALSKSSMYTVGAPHTWPHIVAALVWLIDCIKIHTAMKESSPLFDDGQPWGEETEDGIMHNKLFLDYTIKCYESFMSGADSFDEMNAELQSKLKDLFNVDAFKLESLEAKNRALNEQIARLEQEREKEPNRLESLRKLKASLQGDVQKYQAYMSNLESHSAILDQKLNGLNEEIARVELECETIKQENTRLQNIIDNQKYSVADIERINHERNELQQTINKLTKDLEAEQQKLWNEELKYARGKEAIETQLAEYHKLARKLKLIPKGAENSKGYDFEIKFNPEAGANCLVKYRAQVYVPLKELLNETEEEINKALNKKMGLEDTLEQLNAMITESKRSVRTLKEEVQKLDDLYQQKIKEAEEEDEKCASELESLEKHKHLLESTVNQGLSEAMNELDAVQREYQLVVQTTTEERRKVGNNLQRLLEMVATHVGSVEKHLEEQIAKVDREYEECMSEDLSENIKEIRDKYEKKATLIKSSEE
partner: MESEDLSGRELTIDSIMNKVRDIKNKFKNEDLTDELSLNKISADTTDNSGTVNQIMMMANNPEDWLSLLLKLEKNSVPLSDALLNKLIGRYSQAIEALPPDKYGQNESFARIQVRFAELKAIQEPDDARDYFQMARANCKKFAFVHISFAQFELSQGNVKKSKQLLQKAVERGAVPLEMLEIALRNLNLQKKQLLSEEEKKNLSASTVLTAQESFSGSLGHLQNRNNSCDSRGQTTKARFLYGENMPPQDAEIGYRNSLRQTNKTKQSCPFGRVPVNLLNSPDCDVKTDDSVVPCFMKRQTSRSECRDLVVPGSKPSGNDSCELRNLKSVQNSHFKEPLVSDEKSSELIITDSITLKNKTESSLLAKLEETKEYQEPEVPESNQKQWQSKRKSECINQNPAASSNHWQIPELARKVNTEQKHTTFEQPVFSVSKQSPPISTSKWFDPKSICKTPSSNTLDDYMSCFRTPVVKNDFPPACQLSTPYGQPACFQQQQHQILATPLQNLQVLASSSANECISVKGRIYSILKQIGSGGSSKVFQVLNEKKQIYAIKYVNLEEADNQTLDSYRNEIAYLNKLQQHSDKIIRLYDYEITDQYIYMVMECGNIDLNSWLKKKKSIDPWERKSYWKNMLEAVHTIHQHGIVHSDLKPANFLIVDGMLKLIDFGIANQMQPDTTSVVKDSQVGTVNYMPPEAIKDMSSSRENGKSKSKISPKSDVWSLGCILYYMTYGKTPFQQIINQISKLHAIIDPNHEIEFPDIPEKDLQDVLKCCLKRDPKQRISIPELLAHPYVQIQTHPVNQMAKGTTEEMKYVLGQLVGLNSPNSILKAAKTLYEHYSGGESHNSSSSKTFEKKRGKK
B2: Kinetochore protein Nuf2 (Homo sapiens), Q9BZD4 (parent)
chain: METLSFPRYNVAEIVIHIRNKILTGADGKNLTKNDLYPNPKPEVLHMIYMRALQIVYGIRLEHFYMMPVNSEVMYPHLMEGFLPFSNLVTHLDSFLPICRVNDFETADILCPKAKRTSRFLSGIINFIHFREACRETYMEFLWQYKSSADKMQQLNAAHQEALMKLERLDSVPVEEQEEFKQLSDGIQELQQSLNQDFHQKTIVLQEGNSQKKSNISEKTKRLNELKLSVVSLKEIQESLKTKIVDSPEKLKNYKEKMKDTVQKLKNARQEVVEKYEIYGDSVDCLPSCQLEVQLYQKKIQDLSDNREKLASILKESLNLEDQIESDESELKKLKTEENSFKRLMIVKKEKLATAQFKINKKHEDVKQYKRTVIEDCNKVQEKRGAVYERVTTINQEIQKIKLGIQQLKDAAEREKLKSQEIFLNLKTALEKYHDGIEKAAEDSYAKIDEKTAELKRKMFKMST
partner: B1 partner

Variants of: B1
Settings: with TTK

| Variant | effect of a mutation on the interaction |
| --- | --- |
| K166E | decreasing interaction strength |
| K89E | decreasing interaction strength |
| K89E;K166E | decreasing interaction strength |

Variants of: B2
Settings: with TTK

| Variant | effect of a mutation on the interaction |
| --- | --- |
| METLSAARYNVAEIVIHIRNKILTGADGKNLTKNDLYPNPKPEVLHMIYMRALQIVYGIRLEHFYMMPVNSEVMYPHLMEGFLPFSNLVTHLDSFLPICRVNDFETADILCPKAKRTSRFLSGIINFIHFREACRETYMEFLWQYKSSADKMQQLNAAHQEALMKLERLDSVPVEEQEEFKQLSDGIQELQQSLNQDFHQKTIVLQEGNSQKKSNISEKTKRLNELKLSVVSLKEIQESLKTKIVDSPEKLKNYKEKMKDTVQKLKNARQEVVEKYEIYGDSVDCLPSCQLEVQLYQKKIQDLSDNREKLASILKESLNLEDQIESDESELKKLKTEENSFKRLMIVKKEKLATAQFKINKKHEDVKQYKRTVIEDCNKVQEKRGAVYERVTTINQEIQKIKLGIQQLKDAAEREKLKSQEIFLNLKTALEKYHDGIEKAAEDSYAKIDEKTAELKRKMFKMST [F6A;P7A] | disrupting interaction strength |
| METLSFPRYNVAEIVIHIRNKILTGADGKNLTKNDLYPNPKPEVLHMIYMRALQIVYGIRLEHFYMMPVNSEVMYPHLMEGFLPFSNLVTHLDSFLPICRVNKFETADILCPKAKRTSRFLSGIINFIHFREACRETYMEFLWQYKSSADKMQQLNAAHQEALMKLERLDSVPVEEQEEFKQLSDGIQELQQSLNQDFHQKTIVLQEGNSQKKSNISEKTKRLNELKLSVVSLKEIQESLKTKIVDSPEKLKNYKEKMKDTVQKLKNARQEVVEKYEIYGDSVDCLPSCQLEVQLYQKKIQDLSDNREKLASILKESLNLEDQIESDESELKKLKTEENSFKRLMIVKKEKLATAQFKINKKHEDVKQYKRTVIEDCNKVQEKRGAVYERVTTINQEIQKIKLGIQQLKDAAEREKLKSQEIFLNLKTALEKYHDGIEKAAEDSYAKIDEKTAELKRKMFKMST [D103K] | decreasing interaction strength |
| METLSFPRYNVAEIVIHIRNKILTGADGKNLTKNDLYPNPKPEVLHMIYMRALQIVYGIRLEHFYMMPVNSEVMYPHLMEGFLPFSNLVTHLDSFLPICRVNDFETADILCPKAERTSRFLSGIINFIHFREACRETYMEFLWQYKSSADKMQQLNAAHQEALMKLERLDSVPVEEQEEFKQLSDGIQELQQSLNQDFHQKTIVLQEGNSQKKSNISEKTKRLNELKLSVVSLKEIQESLKTKIVDSPEKLKNYKEKMKDTVQKLKNARQEVVEKYEIYGDSVDCLPSCQLEVQLYQKKIQDLSDNREKLASILKESLNLEDQIESDESELKKLKTEENSFKRLMIVKKEKLATAQFKINKKHEDVKQYKRTVIEDCNKVQEKRGAVYERVTTINQEIQKIKLGIQQLKDAAEREKLKSQEIFLNLKTALEKYHDGIEKAAEDSYAKIDEKTAELKRKMFKMST [K115E] | decreasing interaction strength |
| METLSFPRYNVAEIVIHIRNKILTGADGKNLTKNDLYPNPKPEVLHMIYMRALQIVYGIRLEHFYMMPVNSEVMYPHLMEGFLPFSNLVTHLDSFLPICRVNDFETADILCPKAKETSRFLSGIINFIHFREACRETYMEFLWQYKSSADKMQQLNAAHQEALMKLERLDSVPVEEQEEFKQLSDGIQELQQSLNQDFHQKTIVLQEGNSQKKSNISEKTKRLNELKLSVVSLKEIQESLKTKIVDSPEKLKNYKEKMKDTVQKLKNARQEVVEKYEIYGDSVDCLPSCQLEVQLYQKKIQDLSDNREKLASILKESLNLEDQIESDESELKKLKTEENSFKRLMIVKKEKLATAQFKINKKHEDVKQYKRTVIEDCNKVQEKRGAVYERVTTINQEIQKIKLGIQQLKDAAEREKLKSQEIFLNLKTALEKYHDGIEKAAEDSYAKIDEKTAELKRKMFKMST [R116E] | decreasing interaction strength |
| METLSFPRYNVAEIVIHIRNKILTGADGKNLTKNDLYPNPKPEVLHMIYMRALQIVYGIRLEHFYMMPVNSEVMYPHLMEGFLPFSNLVTHLDSFLPICRVNDFETADILCPKAKRTSRFLSGIIAFIHFREACRETYMEFLWQYKSSADKMQQLNAAHQEALMKLERLDSVPVEEQEEFKQLSDGIQELQQSLNQDFHQKTIVLQEGNSQKKSNISEKTKRLNELKLSVVSLKEIQESLKTKIVDSPEKLKNYKEKMKDTVQKLKNARQEVVEKYEIYGDSVDCLPSCQLEVQLYQKKIQDLSDNREKLASILKESLNLEDQIESDESELKKLKTEENSFKRLMIVKKEKLATAQFKINKKHEDVKQYKRTVIEDCNKVQEKRGAVYERVTTINQEIQKIKLGIQQLKDAAEREKLKSQEIFLNLKTALEKYHDGIEKAAEDSYAKIDEKTAELKRKMFKMST [N126A] | disrupting interaction strength |
| METLSFPRYNVAEIVIHIRNKILTGADGKNLTKNDLYPNPKPEVLHMIYMRALQIVYGIRLEHFYMMPVNSEVMYPHLMEGFLPFSNLVTHLDSFLPICRVNDFETADILCPKAKRTSRFLSGIINFIAFREACRETYMEFLWQYKSSADKMQQLNAAHQEALMKLERLDSVPVEEQEEFKQLSDGIQELQQSLNQDFHQKTIVLQEGNSQKKSNISEKTKRLNELKLSVVSLKEIQESLKTKIVDSPEKLKNYKEKMKDTVQKLKNARQEVVEKYEIYGDSVDCLPSCQLEVQLYQKKIQDLSDNREKLASILKESLNLEDQIESDESELKKLKTEENSFKRLMIVKKEKLATAQFKINKKHEDVKQYKRTVIEDCNKVQEKRGAVYERVTTINQEIQKIKLGIQQLKDAAEREKLKSQEIFLNLKTALEKYHDGIEKAAEDSYAKIDEKTAELKRKMFKMST [H129A] | decreasing interaction strength |
